The target of assay [1] is human TIGIT expressed on cells (human) (UniProt Q495A1). The experiment in a line: cell-based or functional assay.
In assay [2] the target is human TIGIT-Fc protein (human) (UniProt Q495A1). The experiment in a line: SPR, Biacore T200, antibody captured on anti-mouse IgG, TIGIT-Fc in solution, 1:1 Langmuir fit. On the technique in general: SPR reads the build-up and loss of mass on a sensor chip optically.
The target of assay [3] is Human TIGIT-His (extracellular domain of hTIGIT with a histidine tag) (human) (UniProt Q495A1). The assay can be described thus: SPR, Biacore T200, antibody captured on anti-mouse IgG, TIGIT-His in solution, 1:1 Langmuir fit.
Human TIGIT-His (extracellular domain of hTIGIT with a histidine tag) (human), sequence (Q495A1 25-141 limits assumed): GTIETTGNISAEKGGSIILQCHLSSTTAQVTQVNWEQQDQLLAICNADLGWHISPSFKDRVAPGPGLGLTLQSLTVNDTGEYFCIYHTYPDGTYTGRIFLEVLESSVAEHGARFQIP

human TIGIT-Fc protein (human), sequence (Q495A1 25-141): as the sequence (Q495A1 25-141 limits assumed) above
human TIGIT expressed on cells (human), sequence (Q495A1 25-244): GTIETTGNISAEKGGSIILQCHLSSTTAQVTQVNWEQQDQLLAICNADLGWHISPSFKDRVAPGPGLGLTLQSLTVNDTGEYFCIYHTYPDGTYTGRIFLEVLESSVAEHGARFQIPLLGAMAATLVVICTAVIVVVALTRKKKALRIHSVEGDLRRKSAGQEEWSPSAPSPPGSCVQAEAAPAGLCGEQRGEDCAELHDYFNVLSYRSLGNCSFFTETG

One may read the Kd as the equilibrium constant for the complex coming apart. Consider “MBSA43 (commercial mouse anti-human TIGIT antibody, eBioscience Cat #12-9500-42)”, for which the EC50 of IL-2 rescue in hTIGIT-Jurkat / THP-1 co-culture in assay [1] turned out to be 0.24 mg/L. Moreover, the equilibrium dissociation constant (Kd) came out at 0.0165 nM in assay [2] and 0.0363 nM in assay [3].

The values above are taken from patent US20200270346A1.
